According to paper PMC10576006, “Structural insights into the complex of oncogenic KRas4B^G12V and Rgl2, a RalA/B activator” (Life Science Alliance, 2023):

Target: T1, human wildtype KRas4B 1-169 (C-terminal truncated) (human, UniProt P01116-2 1-169)
T1 construct: human wildtype KRas4B isoform, residues 1-169, lacking the C-terminal hyper-variable region; Loaded with GTP for BLI; also called KRas4B^WT; KRas (WT); source: E. coli DE3 Rosetta, purified (Ni-sepharose, TEV cleavage, SEC); not shown: His6, N-terminal, cleaved
Experiment: BLI; Octet R8; GST fusion (0.7 uM) immobilised on anti-GST biosensors; GTP-loaded KRas4B as analyte (200 nM-15 uM for Rgl2^RA, 20 nM-5 uM for BRAF^RBD); GF buffer (20 mM Tris pH 7.65, 100 mM NaCl, 5 mM MgCl2, 1 mM TCEP); 20°C; double referencing; 1:1 binding model
Details: both partners purified

B1: GST-Rgl2^RA (Ras association domain of human Rgl2, residues 643-740, fused with GST) (domain or fragment, UniProt O15211 643-740, looked up)
chain: GPGASDCRIIRVQMELGEDGSVYKSILVTSQDKAPSVISRVLKKNNRDSAVASEYELVQLLPGERELTIPASANVFYAMDGASHDFLLRQRRRSSTAT
notes: human Rgl2, residues 643-740, holding the Ras-associating (RA) domain (648-735 in UniProt O15211); A TEV site lies between GST and Rgl2^RA (vector pLEICS2); source: E. coli DE3 Rosetta, purified (glutathione beads, SEC); not shown: GST, N-terminal, kept
Kd: ~1480 nM
